Laboratory results reported in publication PMC7684302, “A novel Schmallenberg virus subunit vaccine candidate protects IFNAR^-/- mice against virulent SBV challenge” (Scientific Reports, 2020).

Molecular target: the molecule itself
Experiment: SEC; HiLoad 16/60 Superdex 200 pg column in 1X PBS, after Ni-NTA

B1: Schmallenberg virus nucleoprotein (natural protein)
chain: MSSQFIFEDVPQRNAATFNPEVGYVAFIGKYGQQLNFGVARVFFLNQKKAKMVLHKTAQPSVDLTFGGVKFTVVNNHFPQYVSNPVPDNAITLHRMSGYLARWIADTCKASVLKLAEASAQIVMPLAEVKGCTWADGYTMYLGFAPGAEMFLDAFDFYPLVIEMHRVLKDNMDVNFMKKVLRQRYGTMTAEEWMTQKITEIKAAFNSVGQLAWAKSGFSPAARTFLQQFGINI
notes: Nucleoprotein (N) of Schmallenberg virus, encoded on the S segment; cDNA ligated through AgeI/XhoI into pET-28M-SUMO3 in place of GFP; also called SBV-N; SBV N; source: E. coli BL21, purified (Ni-NTA, SEC)
B1: binds.
